Experiment: Stability of radiotracers in PBS / kit-based reaction solution
Assay type: physicochemical
Conditions: ^99mTc and ^188Re radiotracers; radio-HPLC
Experimental: The new radiotracers, [^64Cu(DP^An-PSMAt)2]^+ and [^64Cu(DP^MEP-PSMAt)2]^+, were purified using reverse-phase HPLC, reformulated in aqueous PBS (phosphate buffered saline) solution, and incubated with human serum at 37 °C. […] Both ^64Cu radiotracers were also stable in aqueous PBS solution (see SI).
Both [^99mTcO2(DP^An-PSMAt)2]^+ and [^99mTcO2(DP^MEP-PSMAt)2]^+, prepared using kits, were incubated at 37 °C in human serum for up to 24 h. […] [^188ReO2(DP^An-PSMAt)2]^+ and [^188ReO2(DP^MEP-PSMAt)2]^+, prepared using kits and then isolated using reverse-phase HPLC in >98% radiochemical purity, were also incubated in human serum under the same conditions. […] These ^99mTc and ^188Re radiotracers were also stable when left to stand in kit-based reaction solutions, or in PBS solution (see SI for full chromatograms).
64Cu: A solution of either [ 64Cu(DPAn-PSMAt)2]+ or [64Cu(DPMEP-PSMAt)2]+ (purified, >98% RCP, 0.6– 0.8 MBq in 8–20 µL PBS) was diluted with PBS (350 µL total volume) and incubated at 37 °C. After 24 h, the sample was analysed by analytical C18 radio-HPLC (Method 2). […]
Each aliquot was treated with an equal amount of ice -cold MeCN to precipitate serum proteins and centrifuged (10,000 rpm, 10 min). The supernatant was isolated, MeCN evaporated under a stream of N2, and the resultant solution analysed by analytical C18 radio-HPLC (Method 2). […]

## COCCOc1ccc(P(/C(C(=O)O)=C(/C(=O)NCCOCCOCCOCCOCCC(=O)NCCCC[C@H](NC(=O)N[C@@H](CCC(=O)O)C(=O)O)C(=O)O)P(c2ccc(OCCOC)cc2)c2ccc(OCCOC)cc2)c2ccc(OCCOC)cc2)cc1 [[^99mTcO2(DP^MEP-PSMAt)2]^+, metal not drawn]
  stability when left to stand in kit-based reaction solutions, or in PBS solution: stable

## COc1ccc(P(/C(C(=O)O)=C(/C(=O)NCCOCCOCCOCCOCCC(=O)NCCCC[C@H](NC(=O)N[C@@H](CCC(=O)O)C(=O)O)C(=O)O)P(c2ccc(OC)cc2)c2ccc(OC)cc2)c2ccc(OC)cc2)cc1 [[^99mTcO2(DP^An-PSMAt)2]^+, metal not drawn]
  stability when left to stand in kit-based reaction solutions, or in PBS solution: stable

— article PMC12435366, “Maleic anhydride derived diphosphines: adaptable chelators for receptor-targeted ^99mTc, ^64Cu and ^188Re radiotracers” (Chemical Science, 2025)
